Measurements: patent CN111647079A (UNIV BEIBU GULF, dated 2020)

Key:
[1] = target: T1, 2019-NCOV Nucleocapsid (原核表达N蛋白) (SARS-CoV-2, UniProt P0DTC9 1-419); test: BLI (Fortebio BLItz), […], global fit
T1 construct: also called N protein

[2] = target: NCOV-SARI-N-his (真核表达N蛋白) (SARS-CoV-2, UniProt P0DTC9 1-419)
[3] = target: T1, 2019-NCOV Nucleocapsid (原核表达N蛋白)

B1: Fab 20抗体 (抗新型冠状病毒N蛋白的中和抗体) (Fab, V domains shown)
VH: VQLLEQSGAEVKKPGSSVKVSCKASGGTFSSYAISWVRQAPGQGLEWMGGTIPIFGTANYAQKFQGRVTITADESTSTAYMELSSLRSEDTAVYYCARGGWSSSAGGYYGMDVWGQGTTVTVSS
VL: not shown
notes: also called HFab20/LFab20
Q: Which Kd [1] does the source give for B1 here?
A: The Kd was 111 nM.

Q: What about the EC50 [2] of the same binder?
A: The EC50 was 4.75 µg/mL.

Q: What about the EC50 [3] of the same binder?
A: The EC50 was 3.98 µg/mL.
